Reference: patent publication US20040214329

Tested on: phiC31 integrase (Streptomyces phage phiC31?)
Test: cell_activity
Settings: E. coli, 1% L-arabinose, 32 C, 60-120 min, resuspended 4:1 in fresh LB

In the case of “phiC31 attB/attP sites flanking expression cassette in pBAD.phiC31.RHB”, the activity (% recombination) is reported as > 97.
